Test [1] deals with Fluorescence quenched C4 P4-P4' substrate, 2-aminobenzoate-GLQRALEI-Lys(Dinitrophenol)-NH2.

“Recombinant human C1s K628A mutant, activated (from UniProt P09871 16-688) (enzyme)” gave an EC50 for cleavage of the C4 alpha chain (C4 1 uM, enzyme 0-5 nM, 1 h, 37 C, SDS-PAGE densitometry) with Complement component C4 of 0.77 nM. Besides, the kcat/K0.5 for cleavage of the fluorescence quenched C4 P4-P4' peptide (400 nM enzyme, 0.5-500 uM substrate, 37 C) in test [1] turned out to be 110000 M⁻¹ s⁻¹.
The corresponding values for “Recombinant human C1s K628Q mutant, activated (from UniProt P09871 16-688) (enzyme)” are 0.76 nM and 95000 M⁻¹ s⁻¹.
For “Recombinant human C1s, wild type, activated (from UniProt P09871 16-688) (enzyme)”, in the test with Complement component C4, the EC50 for cleavage of the C4 alpha chain (C4 1 uM, enzyme 0-5 nM, 1 h, 37 C, SDS-PAGE densitometry) was 0.16 nM. Further, the kcat/K0.5 for cleavage of the fluorescence quenched C4 P4-P4' peptide (400 nM enzyme, 0.5-500 uM substrate, 37 C) in test [1] turned out to be 82000 M⁻¹ s⁻¹.
